Measurements published in the nanobody polyreactivity screen of Harvey et al. (2022).

Assay: yeast display, Sf9 membrane polyspecificity reagent, FACS + sequencing; frameworks hold sequencing errors
How it was run: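 Galactose induction of a Saccharomyces cerevisiae BJ5465 synthetic nanobody display library ran 36–48 hours. The cells were then stained for 1 hour at 4 °C with 10% biotinylated, detergent-solubilized Sf9 membrane reagent, pulled down on streptavidin microbeads and FACS-sorted into low and high (top ~1%) gates on expression and reagent-binding fluorescence. Labels for polyreactivity follow the gate of origin.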

Row | Sequence | polyreactivity (PSR sort gate)
1 | QVQLVESGGGLVQAGGSLRLSCAASGRIFTVFGMGWYRQAPGKERELVAAISWSGGGTYYADSVKGRFTISRDNAKNTVYLQMNSLKPEDTAVYYCNAVRQYTWSLVFFSSDYDYWGQGTQVTVSS | low polyreactivity
2 | QVQLVESGGGLVQAGGSLRLSCAASGRIFTWNAMGWYRQAPGKERELVASISRSGTSTYYADSVKGRFTISRDNAKNTVYLQMNSLKPEDTAVYYCNARTIYYYFRLSTPYNYWGQGTQVTVSS | high polyreactivity
3 | QVQLVESGGGLVQAGGSLRLSCAASGRIFTWYAMGWYRTAPGKERELVATITGDGNTYYADSVKGRFTISRDNAKNTVYLQMKSLKPEDTAVYYCNRYGYFRYRWGKYEYWGQGTQVTVSS | high polyreactivity
4 | QVQLVESGGGLVQAGGSLRLSCAASGRIFTYNAMGWYRQAPGKERELVAAITRGGTTNYADSVKGRFTISRDNAKNTVYLQMNSLKPEDTAVYYCARAGAHPWWSRSTMYYWGQGTQVTVSS | low polyreactivity
5 | QVQLVESGGGLVQAGGSLRLSCAASGRIFTYNAMGWYRQAPGKERELVATITWRGGGTYYADSVKGRFTISRDNAKNTVYLQMNSLKPEDTAVYYCNRRLPGDGQYGYRRYDYWGQGTQVTVSS | low polyreactivity
6 | QVQLVESGGGLVQAGGSLRLSCAASGRIFTYNAMGWYRQAPGKERELVAVISRRGGSTYYADSVKGRFTSSRDNAKNPVYLQMNSLTPEDSAVYYCAADLPSYPYEYWGQGPQVTVSS | low polyreactivity
7 | QVQLVESGGGLVQAGGSLRLSCAASGRIFTYNAMVWYRQAPGKERELVAVITSGGSTYYADSVKGRFTISRDNAKNTVYLQMNSLKPEDTAVYYCAARVWGSSQYYYWGQGTQVTVSS | low polyreactivity
8 | QVQLVESGGGLVQAGGSLRLSCAASGRIFTYYAKGWYRQPPGKERELVAVISSVGGTYYADSVKGRFTISRDNAKNTVYLQMNSLKPEDTAVYYCAALSDSRWHRFGYWGQGTQVTVSS | high polyreactivity
9 | QVQLVESGGGLVQAGGSLRLSCAASGRIFTYYAMGWYRQAPGKERELVAAISTRGGNTYYADSVKGRFTISRDNAKNSVYLQMNSLKPEDTAVYYCSKENYYGGGFDYWGQGTQVTVSS | high polyreactivity
10 | QVQLVESGGGLVQAGGSLRLSCAASGRIFTYYAMGWYRQAPGKERELVATICSSGSTNYADSVKGRFTISRDNAKNTVYLQMNSLKPEDTAVYYCAKKTRRRYDVKYDYWGQGTQVTVSS | low polyreactivity
11 | QVQLVESGGGLVQAGGSLRLSCAASGRIFTYYAMGWYRQAPGKERQLVAAISSGTGTNYADSVKGRFTNSRDNAKNTVYLQMNSLKPEDTAVYDCAADRQHVVVGYYYWGQGTQVTVSS | low polyreactivity
12 | QVQLVESGGGLVQAGGSLRLSCAASGRIFTYYTMGWYRQAPGKERELVAANDSGSSTYYADSVKGRFTISRDNAKNTVYLQMNSLKPEDTAVYYCAADGVRSLVRRGYWFDYWGQGTQVTVSS | low polyreactivity
13 | QVQLVESGGGLVQAGGSLRLSCAASGRIFVANAMGWYRQAPGKERELVAAISRRGGRTYYADSVKGRFTISRDNAKNTVYLQMNSLKPEDTAVYYCARVPTRAEDVAGWTGMDYWGQGTQVTVSS | high polyreactivity
14 | QVQLVESGGGLVQAGGSLRLSCAASGRIFVDNAMGWYRQAPGKERELVATITSTGSTNYADSVKGRFTISRDNAKNTVYLQMNSLKPEDTAVYYCADGYYPYWGQGTQVTVSS | low polyreactivity
15 | QVQLVESGGGLVQAGGSLRLSCAASGRIFVDNTMGWYRPAPGKERELVAAISRRGTSTYYADSVKGRSTISRDNAKNTVYLQMNSLKPEDTAVYYCAADYYYYDSQQGMDYWGQGTQVTVSS | high polyreactivity
16 | QVQLVESGGGLVQAGGSLRLSCAASGRIFVGYAMGRNIQAPGKERELVAAISRDGDNTFYADSVKGRFTISRDNAKNTVYLQMNSLKPEDTAVYYCAVDYWVWSCSAYAYDYYWGQVTQVTVSS | low polyreactivity
17 | QVQLVESGGGLVQAGGSLRLSCAASGRIFVGYAMGWSRQAPGKERELVASITRSAGRTFYADSVKGRFTISRDNAKNTVYLQMNSLKPEDTAVYYCNARYWKGYNGYLRSTRRDDYWGQGTQVTVSS | high polyreactivity
18 | QVQLVESGGGLVQAGGSLRLSCAASGRIFVHNAMGWYRQAPGKERELVAAISQNGGRTYYADSVKGRFTISRDNAKNTVYLQMNSLIPEDTAVYYCAAGQARAGLIGGYWGQGTQVTVSS | high polyreactivity
19 | QVQLVESGGGLVQAGGSLRLSCAASGRIFVHNAMGWYRQAPGKERELVAAISSGGSTYYADSVKGRFTISRDNAKNTVYLQMNSLKPEDTAVYYCAKYAYYKKYDYWGQGTQVTVSS | high polyreactivity
20 | QVQLVESGGGLVQAGGSLRLSCAASGRIFVHYAMGWYRQAPGKERELVAAISWNGGRTFYADSVKGRFTISRDNEKYTVYLQMNSLKPEDTAVYYCAALSRYSLDYWGQGTQVTVSS | high polyreactivity
21 | QVQLVESGGGLVQAGGSLRLSCAASGRIFVIYAMGWYRQAPGKERELVASIRSSSTYYADSVKGRFTISRDNAKNTVYLQMNSLKPEDTAVYYCAAVAEYRGYDYWGQGTQVTVSS | low polyreactivity

Row | Sequence | polyreactivity (PSR sort gate)
22 | QVQLVESGGGLVQAGGSLRLSCAASGRIFVIYAMGWYRQAPGTERELVAAITARGSNTYYADSVKGRFTISRDNAKNTVYLQMNSLKPEDTAVYYCNAEARSYRYPYNYWGQGTQVTVSS | high polyreactivity
23 | QVQLVESGGGLVQAGGSLRLSCAASGRIFVIYGMGWYRQAPGKERELVAAIRWTGGSTYYADSVKGRFTISRDNAQNTVYLQMNSLQPEDTAVYYCNAGSDRAIWPTHDYWGQGTQVTVSS | low polyreactivity
24 | QVQLVESGGGLVQAGGSLRLSCAASGRIFVIYGRGWYRPAPGKERELVATISWSGSSTSYADSVKGRFTISRDNAKNTVYLQMNSLKPEDTAVYYCAAYTWYSRHRMNYWGQGTQVTVSS | high polyreactivity
25 | QVQLVESGGGLVQAGGSLRLSCAASGRIFVKNAMGWYRQAPGKERELVAAISRGGSTYYADSEKGRFTISRDNAKITVYLQMNSLKPEDTAVYNCAPGGQGGDFGDDYWGQGTQVTVSS | high polyreactivity
26 | QVQLVESGGGLVQAGGSLRLSCAASGRIFVKNAMGWYRQAPGKERELVAGISRGGSTYYADSVKGRFTISRDNAKNTVYLQMYSLKPEDTAVYYCATRNYGRGQFDYWGQGSQVTVSS | high polyreactivity
27 | QVQLVESGGGLVQAGGSLRLSCAASGRIFVKYAMGWYRQAPGKERELVAAIRSGGSTYYADSVKGRFTISRDNAKNTVYLQMNSLKPEDTAVYDCAADRNKHHYYTEPYDYWGQGTQVTVSS | low polyreactivity
28 | QVQLVESGGGLVQAGGSLRLSCAASGRIFVKYAMGWYRQAPGKEREMVAAISASGGGTYYADSVKGRFTISRDNAKNTVYLQMNSLNPVDTAVYYFNADFRYPGQVPSYVTYDYWGQGTQVNVSS | low polyreactivity
29 | QVQLVESGGGLVQAGGSLRLSCAASGRIFVKYVMGWYRQAPGKERELVAAISSRGGSTYYADSVKGRFTSSRDNAKNTVYLQMNSLKPEDTAVYYCNKAFTARDDYWGQGTQVTVSS | high polyreactivity
30 | QVQLVESGGGLVQAGGSLRLSCAASGRIFVKYVMGWYRQAPGKERELVAAITYTGGTYYADSVKGRFTISRDTAKNTVYLQMNSLKPEETAVYYCAADYQGSYYSGSYQTWTEYYYWGQGTQVTVSS | high polyreactivity
31 | QVQLVESGGGLVQAGGSLRLSCAASGRIFVNYAMGWYRQAPGKERELVAVISRSGGGTNYADSVKGRFTISRDNAKNTVYLQMNSLKPEDTAVYYCNRVYALTYYAKYGYDYWGQGTQVTVSS | high polyreactivity
32 | QVQLVESGGGLVQAGGSLRLSCAASGRIFVPNAMGWYRQAPGKERELVAAITRSGSTYYADSVKGRFTISRDNAKNTVYLQMNSLKPEDTAVYYCAADYYYPSQMDSWGQGTQVTVSS | low polyreactivity
33 | QVQLVESGGGLVQAGGSLRLSCAASGRIFVPNAMGWYRQAPGKERELVAAITRSGSTYYADSVKGRFTISRDNAKNTVYLQMNSLKPEDTAVYYCNAASRRFPGKVWDYHYWGQGTQVTVSS | low polyreactivity
34 | QVQLVESGGGLVQAGGSLRLSCAASGRIFVPYAMGWSRQAPGKEREFVAAISWNTGSTYYADSVKGRFTISRDNAKNTVYLQMNSLNPVDTAVYYCAAGSGVSYEGGYKINGYWGQGTQVTVSS | high polyreactivity
35 | QVQLVESGGGLVQAGGSLRLSCAASGRIFVPYAMGWYRQAPGKERELVAAISWNTGSTYYADSVKGRFTISRDNAKNTVYLQMNSLKPEDTAVYYCAAGSRVRYDGGYKINGYWGQGTQVTVSS | high polyreactivity
36 | QVQLVESGGGLVQAGGSLRLSCAASGRIFVRNAMGWYRQAPGKEMEFVAAISRSGGSTYYADSVKGRFTISRDNAKNTVYLQMNSLKPEDTAVYYCAADYPKTYTSKFNYWGQGTQVTVSS | high polyreactivity
37 | QVQLVESGGGLVQAGGSLRLSCAASGRIFVRNAMGWYRQAPGKEREFVAAISRSGGSTYYADSVKGRFTISRDNAKNTVYLQMNSLKPEDTAVYYCAADYPKTYTSKFNYWGQGTQVTVSS | high polyreactivity
38 | QVQLVESGGGLVQAGGSLRLSCAASGRIFVRNAMGWYRQAPGKERELVAAISRSGGSTSYADSVKGRFTISRDNAKNTVYLQMNSLKPEDTAVYYCAARYARYQYQYDYWGQGTQVTVSS | high polyreactivity
39 | QVQLVESGGGLVQAGGSLRLSCAASGRIFVRNTMGWYRQAPGKERELVAAINSGGSTYYADSVKGRFTISRDNENNTVYLQMNSLKPEDTAVYYCAGQFYLFYEYDYWGQGTQVTVSS | high polyreactivity
40 | QVQLVESGGGLVQAGGSLRLSCAASGRIFVRYAMGWYRQAPGKERELVAGITSGSRTNYADSVKGRFTISRDNAKNTVYLQMNSLKPEDTAVYYCNARVFRYYGIFDYWGQGTQVTVSS | high polyreactivity
41 | QVQLVESGGGLVQAGGSLRLSCAASGRIFVRYDMGWYRQAPGKERELVAAISSSDGSTYYADSVKGRFTISRDNAKNTVYLQMNSLKPEDTAVYYCNADVSLDDYDYWGQGTQVTVSS | low polyreactivity
